The text below walks through data of patent US11312769B2, “Anti-TMEFF1 antibodies and antibody drug conjugates” (Bluefin BioMedicine, Inc., priority 2017, dated 2022).

For this assay, the system named is hTMEFF1-ECD recombinant deletion mutants. Put plainly: Binding domain determination with hTMEFF1-ECD deletion mutants (Octet). The conditions noted are these: full length TMEFF1 ECD vs ΔFS1, ΔFS2, ΔFS1&FS2. The arrangement: species or system human; key: FS1—follistatin domain 1; FS2—follistatin domain 2. The source says: TMEFF1 recombinant proteins expressing 3 different deletion mutants, AFS1 (AFollistatin Domain 1), AFS2 (AFollistatin Domain 2) or AFS1&FS2 were used to identify binding domains among different antibodes using an Octet Red instrument with Anti-Penta-His (HIS 1K) biosensors. Expression of the 3 deletion mutants was confirmed by WB analysis. 100 ngs of purified TMEFF1 ECD was run along with unpurified supernatant of transfected CHO cells with the different deletion mutants. HIS 1K biosensors were loaded by submerging the biosensors into wells containing 10 ug/ml of full length TMEFF1 or one of 3 different deletion mutants (AFS1, AFS2 or AFS1&FS2) for 60 seconds. Following the loading step, the biosensors were then dipped for 30 seconds in PBS before immersion for 30 seconds in 200 ul of unpurified recombinant antibodies for 30 seconds. The biosensors were then dipped briefly (30 seconds) in PBS to observe any dissociation. Samples were determined to show binding or no binding by comparing to a control well that contained no recombinant antibody. Differential binding to the deletion mutants allowed for determination of binding sites on TMEFF1 recombinant protein. For cases where the antibody bound all 3 recombinant proteins, the binding is outside of the deleted domains. For the case where binding is observed only on full length TMEFF1 and AFS2, the antibody is binding in the ΔFS1 domain.
26 of the identified antibodies were checked for epitope domain binding by Octet™ using the hTMEFF1-ECD recombinant deletion mutants (see Table 7, below).

B1: M35: human anti-TMEFF1 IgG1 antibody; VH SEQ ID NO: 134, VL SEQ ID NO: 138 (antibody, V domains shown)
VH: QVQLQESGPGLVKPSGTLSLTCAVSGGSISSSNWWSWVRQPPGKGLEWIGEIYHSGSTNYNPSLKSRVTISVDKSKNQFSLKLSSVTAADTAVYYCATMVRGRYYYYGMDVWGQGTTVTVSS
VL: DIVMTQSPLSLPVTPGEPASISCRSSQSLLHSDGYNFLDWYLQKPGQSPQFLIYLGSNRASGVPDRFSGVGSGTDFTLQISRVEAEDFGVYYCMQALQAPWTFGQGTKLEIK
As for B1, the “Binding region (epitope domain binding)” value is given as “FS1”.

B2: M33F: human anti-TMEFF1 IgG1 antibody; VH SEQ ID NO: 9, VL SEQ ID NO: 141 (antibody, V domains shown)
VH: QVQLQESGPGLVKPSETLSLTCAVSGYSISSGYFWGWIRQPPGKKLEWIGSIYHSGSTYYNPSLKSRVTMSVDTSKNQFSLKLSSVTAADTAVYYCAREGDCSGGICYWYFDLWGRGTLVTVSS
VL: DIQMTQSPSSLSASVGDRVTITCRASQGISNYLAWYQQKPGKVPKLLIYAASTLQSGVPSRFSGSGSGTEVTLTISSLQSEDFAVYYCQQYNKWPLTFGGGTKLEIK
Regarding B2, the “Binding region (epitope domain binding)” value is “other”.

B3: 10C10: human anti-TMEFF1 IgG1 antibody; VH SEQ ID NO: 96, VL SEQ ID NO: 93 (antibody, V domains shown)
VH: QVQLVESGGGVVQPGRSLRLSCATSGFTFSIYGMHWVRQAPGKGLEWVAIIWYDGNKKYYADSVKGRFTISRDNSKNTLYLQMNSLRAEDTAVYYCARDPYTSSLDYWGQGTLVTVSS
VL: DIQLTQSPSFLSASVGDRVTITCRASQGISSYLAWYQQKPGKAPKLLIYAASTLQSGVPSRFSGSGSGTEFTLTISSLQPEDFATYYCQQLNSYPLTFGGGTKLEIK
Regarding B3, the “Binding region (epitope domain binding)” value is “FS1”.

B4: 18C2: human anti-TMEFF1 IgG1 antibody; VH SEQ ID NO: 89, VL SEQ ID NO: 93 (antibody, V domains shown)
VH: QVQLVESGGGVVQPGRSLRLSCAASGFTFSIYGMHWVRQAPGMGLEWVAIIRYDGSNKYYADSVKGRFTISRDNSKNTLYLRMNSLRAEDTAVYYCARDPFTSSLDYWGQGTLVTVSS
VL: DIQLTQSPSFLSASVGDRVTITCRASQGISSYLAWYQQKPGKAPKLLIYAASTLQSGVPSRFSGSGSGTEFTLTISSLQPEDFATYYCQQLNSYPLTFGGGTKLEIK
Consider B4, for which the “Binding region (epitope domain binding)” value is “FS1”.

B5: 3H9: human anti-TMEFF1 IgG1 antibody; VH SEQ ID NO: 114, VL SEQ ID NO: 117 (antibody, V domains shown)
VH: EVQLVESGGGLVKPGGSLRLSCAASGFVFSYAWMNWVRQAPGKGLEWVGRIKSKTEGGTTDNAAPVKGRFTISREDSKNTLYLQLNSLKIEDTAVYYCTTGRIAAAGFDYWGQGTLVTVSS
VL: DAVVTQESALTTSPGETVTLTCRSSTGTVTTSNYANWVQEKPDHLFTGLIAGTNNRAPGVPARFSGSLIGDKAALTITGAQTEDEAIYFCALWYSNHWVFGGGTKLTVLG
Regarding B5, the “Binding region (epitope domain binding)” value is given as “other”.

B6: 11F9: human anti-TMEFF1 IgG1 antibody; VH SEQ ID NO: 71, VL SEQ ID NO: 75 (antibody, V domains shown)
VH: EVQLVESGGGLVKPGGSLRLSCAASGFTFSYAWMSWVRQAPGKGLEWVGRIKSKTDGGTTDYAAPVKGRFTISRDDSKNTLYLQLNSLKIEDTAVYYCTTGRIAAAGFDYWAQGTLVTVSS
VL: DAVVTQESALTTSPGETVTLTCRSSTGTVTTSNYANWVQEKPDHLFTGLIAGTNNRAPGVPARFSGSLIGDKAVLTITGAQTEDEAIYFCALWYSNHWVFGGGTKLTVLG
As to B6, the “Binding region (epitope domain binding)” value was “other”.

B7: 19D9: human anti-TMEFF1 IgG1 antibody; VH SEQ ID NO: 99, VL SEQ ID NO: 101 (antibody, V domains shown)
VH: QVQLVESGGGVVQPGRSLRLSCAASGFTFSIYGMHWVRQAPGKGLEWVANIWYDGSKKYYADSVKGRFTISRDNSKNTLYLQMNSLRAEDTSVYYCARDPYTSSLDYWGQGTLVTVSS
VL: DIQLTQSPSFLSASVGDRVTITCRASQGISSYLAWYQQKPGKAPKLLIYTASTLQSGVPSRFSGSGSGTEFTLTISSLQPEDFATYYCQQLNSYPLTFGGGTKLEIK
Regarding B7, the “Binding region (epitope domain binding)” value is “FS1”.

B8: 29C4: human anti-TMEFF1 IgG1 antibody; VH SEQ ID NO: 118, VL SEQ ID NO: 122 (antibody, V domains shown)
VH: QVQLVESGGGVVQPGRSLRLSCAASGFTFSNYGMHWVRQAPGKGLEWVAVIWYDGGPKFYADSVKGRFTISRDNSKNTLYLQMNSLRAEDTAVYYCARSYCGGDCYPFDYWGQGDLVTVSS
VL: DIQMTQSPSSLSASVGDRVTITCRASQGISNYLAWYQQKPGKVPKLLIYAASTLQSGVPSRFSGSGSGTDFTLTISSLQPEDVATYYCQKYYSAPWTFGQGTKVEIK
With B8, the “Binding region (epitope domain binding)” value was “FS1”.

B9: 35B1: human anti-TMEFF1 IgG1 antibody; VH SEQ ID NO: 66, VL SEQ ID NO: 70 (antibody, V domains shown)
VH: QVQLVESGGGVVQPGRSLRLSCAASGFTFTTYGMHWVRQAPGKGLEWVAVVWFEGNSKFYIDSVKGRFIISRDNSKNTLFLQMNSLRAEDTAVYYCARANCGADCYPFDYWGQGTLVTVSS
VL: DIQMTQSPSSLSASVGDRVTITCRASQGISNYLAWYQQKPGKVPKLLIYAASTLQSGVPSRFSGSGSGTDFSLTISSLRPEDVATYYCQKYNSAPWTFGQGTKVEIK
For the molecule B9, the “Binding region (epitope domain binding)” value is listed as “FS1”.

B10: 37G7: human anti-TMEFF1 IgG1 antibody; VH SEQ ID NO: 85, VL SEQ ID NO: 88 (antibody, V domains shown)
VH: QVQLVESGGGVVQPGRSLRLSCAASGFTFTSYGMHWVRQAPGKGLEWVAVVWYEGSSKFYVDSVKGRFIISRDNSKNTLYLQMNSLRAEDTAVYYCARAYCGGDCYPFDYWGQGTLVTVSS
VL: DIQMTQSPSSLSASVGDRVTITCRASQGISNYLAWYQQKPGKVPKLLIYAASTLQSGVPSRFSGSGSGTDFTLTISSLQPEDVATYYCQKYNSAPWTFGQGTKVEIK
In the case of B10, the “Binding region (epitope domain binding)” value was “FS1”.

B11: M1H1: human anti-TMEFF1 IgG1 antibody; VH SEQ ID NO: 9, VL SEQ ID NO: 78 (antibody, V domains shown)
VH: QVQLQESGPGLVKPSETLSLTCAVSGYSISSGYFWGWIRQPPGKKLEWIGSIYHSGSTYYNPSLKSRVTMSVDTSKNQFSLKLSSVTAADTAVYYCAREGDCSGGICYWYFDLWGRGTLVTVSS
VL: DIQMTQSPSSLSASVGDRVTITCRASQGISNYLAWYQQKPGKVPKLLIYAASTLQSGVPSRFSGSGSGTDFTLTISSLQPEDFAVYYCQQYNKWPLTFGGGTKLEIK
Regarding B11, the “Binding region (epitope domain binding)” value is “other”.

B12: M17: human anti-TMEFF1 IgG1 antibody; VH SEQ ID NO: 79, VL SEQ ID NO: 82 (antibody, V domains shown)
VH: QVQLVESGGGVVQPGRSLRLSCAASGFTFRSYGMHWVRQAPGKGLEWVALIWYDGGDQYYADSVKGRFTISRDSSKSTLYLQMNSLRAEDTAVYYCARAQCGDDCYPFDYWGQGTLVTVSS
VL: DIQMTQSPSSLSASVGDRVTITCRASQGIYNYLAWYQQKPGKVPKLLIYAASTLQSGVPSRFSGSGSGTDFTLTISSLQPEDVATYYCQKYNSDPWTFGQGTKLEIK
With B12, the “Binding region (epitope domain binding)” value is recorded as “FS1”.
